Results as given in article PMC9864772.

Test system: PTB1 (polypyrimidine-tract-binding protein isoform 1)
Experiment: filter binding

## HCV 5'UTR RNA
  Kd: 242 nM

## EMCV 5'UTR RNA
  Kd: 127 nM
